Data: doi:10.1101/2025.02.14.638310 (bioRxiv, 2025)

Experiments:
[1] = biological target: T1, Pfs230 fused C-terminally with a 3xFLAG-C-tag (endogenous, parasite line iGP2^230-tag) (Plasmodium falciparum (endogenous in …, UniProt P68874 21-3135)); experiment: affinity purification with mass spectrometry; settings: partners not purified
T1 construct: not shown: 3xFLAG, C-terminal, kept

[2] = biological target: Pfs48/45 (endogenous) (Plasmodium falciparum (endogenous in …, UniProt Q8I6T1)); experiment: cryo-EM structure; settings: both partners purified
[3] = biological target: T2, Pfs230:Pfs48/45 complex (endogenous, FLAG-tag purified) (Plasmodium falciparum (isolate 3D7)., UniProt P68874;Q8I6T1); experiment: native gel or EMSA; settings: both partners purified
T2 construct: not shown: 3xFLAG, C-terminal, kept

[4] = biological target: T3, Pfs230 fused C-terminally with a 3xFLAG-C-tag (endogenous, parasite line iGP2^230-tag) (Plasmodium falciparum (endogenous in …, UniProt P68874)); experiment: native gel or EMSA; settings: both partners purified
T3 construct: not shown: 3xFLAG, C-terminal, kept
T3 sequence (P68874 21-3135): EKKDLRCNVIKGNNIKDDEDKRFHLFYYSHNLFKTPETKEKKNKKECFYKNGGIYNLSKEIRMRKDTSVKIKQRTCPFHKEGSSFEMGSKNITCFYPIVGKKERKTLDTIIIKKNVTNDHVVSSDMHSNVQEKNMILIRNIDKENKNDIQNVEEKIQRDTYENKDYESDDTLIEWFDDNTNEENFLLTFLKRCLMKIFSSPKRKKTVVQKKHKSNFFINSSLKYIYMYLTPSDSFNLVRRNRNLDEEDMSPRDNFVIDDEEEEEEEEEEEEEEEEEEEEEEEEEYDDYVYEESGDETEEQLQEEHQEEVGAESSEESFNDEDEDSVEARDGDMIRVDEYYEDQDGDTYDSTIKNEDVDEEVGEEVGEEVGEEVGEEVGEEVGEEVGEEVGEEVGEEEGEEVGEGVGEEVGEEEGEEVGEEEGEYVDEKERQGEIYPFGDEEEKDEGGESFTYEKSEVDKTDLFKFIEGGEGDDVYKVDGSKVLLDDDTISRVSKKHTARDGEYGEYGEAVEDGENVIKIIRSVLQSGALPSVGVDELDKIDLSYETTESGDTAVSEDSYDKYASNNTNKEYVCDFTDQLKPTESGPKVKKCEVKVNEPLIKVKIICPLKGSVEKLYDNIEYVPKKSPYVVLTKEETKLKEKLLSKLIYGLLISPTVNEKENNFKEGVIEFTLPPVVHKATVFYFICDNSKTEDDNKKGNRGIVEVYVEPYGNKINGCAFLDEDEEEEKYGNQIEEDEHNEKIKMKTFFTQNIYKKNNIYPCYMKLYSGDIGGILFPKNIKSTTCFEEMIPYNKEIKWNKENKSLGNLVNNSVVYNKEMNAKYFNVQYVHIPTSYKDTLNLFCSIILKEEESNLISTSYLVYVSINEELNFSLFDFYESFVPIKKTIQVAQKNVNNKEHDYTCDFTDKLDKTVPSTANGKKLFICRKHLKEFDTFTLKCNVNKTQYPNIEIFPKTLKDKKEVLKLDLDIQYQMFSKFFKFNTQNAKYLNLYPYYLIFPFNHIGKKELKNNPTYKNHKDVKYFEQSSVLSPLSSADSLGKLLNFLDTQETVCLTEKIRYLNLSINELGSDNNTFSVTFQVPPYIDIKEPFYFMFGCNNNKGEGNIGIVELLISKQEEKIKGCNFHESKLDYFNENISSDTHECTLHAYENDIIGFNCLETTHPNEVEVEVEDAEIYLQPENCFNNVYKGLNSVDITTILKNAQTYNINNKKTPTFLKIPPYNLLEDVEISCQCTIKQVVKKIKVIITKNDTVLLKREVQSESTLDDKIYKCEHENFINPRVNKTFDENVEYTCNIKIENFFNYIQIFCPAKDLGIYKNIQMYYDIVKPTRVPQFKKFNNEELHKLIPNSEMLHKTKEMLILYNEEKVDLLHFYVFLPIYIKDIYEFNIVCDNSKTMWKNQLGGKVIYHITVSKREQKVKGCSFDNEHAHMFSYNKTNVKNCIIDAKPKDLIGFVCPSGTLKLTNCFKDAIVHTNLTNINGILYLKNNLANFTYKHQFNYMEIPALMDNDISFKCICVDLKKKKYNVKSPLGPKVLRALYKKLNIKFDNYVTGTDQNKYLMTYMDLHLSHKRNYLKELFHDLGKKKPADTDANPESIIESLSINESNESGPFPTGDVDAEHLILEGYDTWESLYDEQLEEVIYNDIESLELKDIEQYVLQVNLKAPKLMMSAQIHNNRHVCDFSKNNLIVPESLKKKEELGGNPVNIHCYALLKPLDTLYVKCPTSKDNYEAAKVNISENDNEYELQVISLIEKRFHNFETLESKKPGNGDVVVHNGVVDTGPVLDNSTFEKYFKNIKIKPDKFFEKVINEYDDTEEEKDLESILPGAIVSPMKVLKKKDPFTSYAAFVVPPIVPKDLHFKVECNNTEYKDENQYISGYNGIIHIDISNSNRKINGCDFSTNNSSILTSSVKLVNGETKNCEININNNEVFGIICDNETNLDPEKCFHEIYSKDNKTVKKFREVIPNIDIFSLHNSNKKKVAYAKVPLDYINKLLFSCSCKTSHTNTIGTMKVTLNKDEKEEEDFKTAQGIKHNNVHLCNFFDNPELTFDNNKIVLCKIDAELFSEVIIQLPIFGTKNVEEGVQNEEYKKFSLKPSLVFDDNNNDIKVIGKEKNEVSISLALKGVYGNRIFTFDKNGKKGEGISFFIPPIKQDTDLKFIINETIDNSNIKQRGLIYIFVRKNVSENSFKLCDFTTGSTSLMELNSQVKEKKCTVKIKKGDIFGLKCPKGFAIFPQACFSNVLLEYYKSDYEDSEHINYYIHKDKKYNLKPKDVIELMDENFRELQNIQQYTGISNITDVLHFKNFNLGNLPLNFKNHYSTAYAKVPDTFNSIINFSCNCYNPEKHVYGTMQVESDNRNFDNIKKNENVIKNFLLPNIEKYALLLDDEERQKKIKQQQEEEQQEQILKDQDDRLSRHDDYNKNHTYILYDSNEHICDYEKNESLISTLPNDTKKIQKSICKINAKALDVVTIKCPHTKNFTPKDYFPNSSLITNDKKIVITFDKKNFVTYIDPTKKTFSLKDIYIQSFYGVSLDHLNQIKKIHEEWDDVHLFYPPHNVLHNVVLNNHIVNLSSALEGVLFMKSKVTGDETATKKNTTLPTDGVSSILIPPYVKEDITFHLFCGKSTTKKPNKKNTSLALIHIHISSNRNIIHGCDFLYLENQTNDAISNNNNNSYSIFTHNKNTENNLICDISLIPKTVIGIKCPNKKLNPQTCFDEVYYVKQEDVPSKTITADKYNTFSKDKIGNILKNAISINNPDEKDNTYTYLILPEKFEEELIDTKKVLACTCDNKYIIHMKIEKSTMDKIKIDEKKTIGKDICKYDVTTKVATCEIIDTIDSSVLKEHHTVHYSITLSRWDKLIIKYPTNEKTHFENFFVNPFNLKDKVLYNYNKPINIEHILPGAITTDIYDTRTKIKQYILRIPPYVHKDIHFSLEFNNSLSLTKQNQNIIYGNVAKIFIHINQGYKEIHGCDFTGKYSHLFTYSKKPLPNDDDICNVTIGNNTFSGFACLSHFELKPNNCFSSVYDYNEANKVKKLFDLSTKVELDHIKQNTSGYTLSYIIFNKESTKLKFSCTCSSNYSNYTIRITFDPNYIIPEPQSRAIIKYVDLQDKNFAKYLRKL

[5] = biological target: T4, Pfs230D7 (recombinant, WT) (Plasmodium falciparum 3D7, UniProt P68874); experiment: SPR; settings: both partners purified
T4 construct: source: wheat germ cell-free extract WEPRO7240H with Disulfide Bond Enhancer Enzyme Set, purified (Ni Sepharose 6 Fast Flow)

Row | Binder | binding result [2] | binding result [3] | binding result [4] | also measured
1 | Pfs48/45 (endogenous) (natural protein) NNDFCKPSSLNSEISGFIGYKCNFSNEGVHNLKPDMRERRSIFCTIHSYFIYDKIRLIIPKKSSSPEFKILPEKCFQKVYTDYENRVETDISELGLIEYEIEENDTNPNYNERTITISPFSPKDIEFFCFCDNTEKVISSIEGRSAMVHVRVLKYPHNILFTNLTNDLFTYLPKTYNESNFVSNVLEVELNDGELFVLACELINKKCFQEGKEKALYKSNKIIYHKNLTIFKAPFYVTSKDVNTECTCKFKNNNYKIVLKPKYEKKVIHGCNFSSNVSSKHTFTDSLDISLVDDSAHISCNVHLSEPKYNHLVGLNCPGDIIPDCFFQVYQPESEELEPSNIVYLDSQINIGDIEYYEDAEGDDKIKLFGIVGSIPKTTSFTCICKKDKKSAYMTVTID |  |  |  | binding result [1]: binds
2 | RUPA-71 Fab (Fab, V domains shown, source: Freestyle 293-F or 293-S cells, transfected, purified (KappaSelect, MonoS cation exchange)) VH: EEQLVESGGGLVKPGRSLRLSCSASGFTLGDYAVTWFRQASGKEPEWVGVIRTKDEGGTTEYAASVKGRFSILRDDSKSIAHLQMNSLKIEDTAVYYCTRNGLRWYDSSGPRGWAFDIWGPGTLVVVSS VL: EIVMTQSPATVSVSPGERATLSCRTSQSVSNKLAWYQQKPGQAPRLLIYGASTRATGIPARFSGSGSGTQFTLTISSLQSEDFAVYYCQQYNNWPPWTFGRGTKVEIK | binds | binds |  | 
3 | 2A2 Fab (Fab, V domains shown, also called mAb 2A2; 2A2.2a; source: Freestyle 293-F or 293-S cells, transfected, purified (KappaSelect, MonoS cation exchange)) VH: EVQLQQSGPELEKPGASVKISCKASGYSITDYNMNWVKLSNGKSLEWIGNIDPSHGGTTYNQKFKGKATLTVDKSSSTAYMQLKSLTSEDSAVYHCARSTLYGNSAMDCWGQGTSVTVSS VL: SIVMTQTPKFLLVPAGDRVTITCKASQSVNNDVTWYQQKPGQSPKLLIYYASNRYTGVPDRFTGSGYGTDFTFTISTVQAEDLAVYFCQQDYSSPLTFGAGTKLEL |  |  | binds | 
4 | RUPA-47 Fab (Fab, V domains shown, source: Freestyle 293-F or 293-S cells, transfected, purified (KappaSelect, MonoS cation exchange)) VH: QVQLVQSGAEVKKPGASVKLSCTASGYTFTNFGITWVRQAPGQGLEWMAWISVYSGDTDYAQRFQGRVTMTTDTSTRTAYMEMRSLSFDDTAVYYCVRGGRDSPILGGYWGQGTLVTVSS VL: EIVLTQSPGTLSLSPGERVTLSCRASQSVRSMYLAWYQQKPGQAPRLLIHGASIRATGIPDRFSGSGSGTDFTLTISRLEREDFAVYYCHQYGSSPLTFGGGTKVESK |  | binds | no binding (tested: tenfold molar excess Fab) | 
5 | 18F25 Fab (Fab, V domains shown, also called mAb 18F25; 18F25.1; source: Freestyle 293-F or 293-S cells, transfected, purified (KappaSelect, MonoS cation exchange)) VH: QVQLQQSGAELARPGASVKLSCKASGYTFTNYWMQWVKQRPGQGLEWFGAIYPGDGDTRYTQKFKGKATLTADKSSSTAYMQLSSLASEDSAVYYCARSLYLGAMDYWGQGTSVTVSS VL: DIVMTQSHKFMSTSVGDRVSITCKASQDVTNDVAWYQQKPGQSPKLLIYSASYRYTGVPDRFTGSGSGTDFIFTISSVQAEDLAVYYCQQHYSAPPTFGGGTKLEIK |  |  |  | Kd [5]: 1.8 nM
6 | RUPA-44 Fab (Fab, V domains shown, source: Freestyle 293-F or 293-S cells, transfected, purified (KappaSelect, MonoS cation exchange)) VH: QLQLQESGPGLVKPSETLSLTCTVSGGSISRSPYYWGWIRQPPGKGLEWFGSIYNNGSTYYNPPLKSRLTISVDTSKNQFSLKLSSVTAADTAVYYCARHGGSTGMKVVVIAPPDYWGQGTLVTVSS VL: DIQMTQSPATLSASVGDRVTITCRASQSISSWLAWYQQKPGEAPKLLIYKASSLQSGVPSRFSGSGSGTKFSLTISSLQPDDFATFYCQQYHSYPYTFGQGTKLEIK | binds |  |  | 
